Data published in patent publication US6984624B2, “Composition containing an iron complexing protein and a precursor of nitrogen monoxide metabolism and/or a chemical donor of nitrogen monoxide and uses thereof” (Isocell S.A., priority 2000, dated 2006).

Columns and labels:
[1] = system: Intestinal epithelial cells of the Caco-2 line; experiment: Iron fixation at the cellular level over 16 hours of culture (Example 1, FIG. 1); type: cell-based, human; details: Caco-2 cells, no L-arginine
Description: Native bovine Lf was treated at pH 1 so as to substitute the unlabeled iron that it contained in the natural state with ^59Fe labeled iron.
The Lf-^59Fe was then purified in order to remove the nonfixed labeled iron, by gel filtration on a column of SEPHADEX® G-75.
(§1) Intestinal epithelial cells of the Caco-2 line derived from a colon cancer were incubated in a proportion of 2×10^6 cells per ml in an RPMI 1640 medium buffered at pH 7.4, in the presence of 25 mmolar of Hepes, containing 15% (v/v) of fetal calf serum, 2 mmol/l of L-glutamine and 1% (v/v) of a solution of streptomycin-penicillin, sold by the company Gibco.
(§2) Iron fixation at the cellular level was then initiated by adding Lf-^59Fe and/or labeled iron and/or L-arginine.
(§3) One of the cell culture tubes received none of these three constituents, so as to act as a control.
The distribution of the constituents, and also the concentrations at which they were used, appear in Table I below:
The cells were then incubated for a period of 16 hours in Eppendorf tubes kept stirring for the final 2 hours of the culture period. Throughout the incubation period, the amount of cellular iron was measured by centrifugation pellet of the cells a first time after 30 minutes (t=0.5), then after one hour (t=1), and then every hour (t=2 to t=16), using a device for measuring the radioactivity.

[2] = system: Intestinal epithelial cells of the Caco-2 line; experiment: Degree of iron fixation at the cellular level as a function of concentrations (Example 3); type: cell-based, human; details: Caco-2 cells, after 72 hours of incubation; tube contents per Table III (mg/ml); Control = 1
Description: as §1
Twelve tubes of epithelial cell cultures were prepared according to the conditions described above in Example 1.
as §2, §3
The distribution of the constituents, and also the concentrations at which they were used, appear in Table III below:
The degree of cellular fixation of iron was measured after 72 hours of incubation using a device for measuring the radioactivity.

Molecule | Persistence of the iron fixed in the cell [1] | Degree of iron fixation in the cells (cpm ^59Fe) [2] [cpm ^59Fe]
Lf-^59Fe: Native bovine lactoferrin treated at pH 1 and saturated with ^59Fe labeled iron (85% to 100% saturation) (protein, UniProt P24627 20-708, looked up, 59Fe iron-saturated) Lactotransferrin: APRKNVRWCTISQPEWFKCRRWQWRMKKLGAPSITCVRRAFALECIRAIAEKKADAVTLDGGMVFEAGRDPYKLRPVAAEIYGTKESPQTHYYAVAVVKKGSNFQLDQLQGRKSCHTGLGRSAGWIIPMGILRPYLSWTESLEPLQGAVAKFFSASCVPCIDRQAYPNLCQLCKGEGENQCACSSREPYFGYSGAFKCLQDGAGDVAFVKETTVFENLPEKADRDQYELLCLNNSRAPVDAFKECHLAQVPSHAVVARSVDGKEDLIWKLLSKAQEKFGKNKSRSFQLFGSPPGQRDLLFKDSALGFLRIPSKVDSALYLGSRYLTTLKNLRETAEEVKARYTRVVWCAVGPEEQKKCQQWSQQSGQNVTCATASTTDDCIVLVLKGEADALNLDGGYIYTAGKCGLVPVLAENRKSSKHSSLDCVLRPTEGYLAVAVVKKANEGLTWNSLKDKKSCHTAVDRTAGWNIPMGLIVNQTGSCAFDEFFSQSCAPGADPKSRLCALCAGDDQGLDKCVPNSKEKYYGYTGAFRCLAEDVGDVAFVKNDTVWENTNGESTADWAKNLNREDFRLLCLDGTRKPVTEAQSCHLAVAPNHAVVSRSDRAAHVKQVLLHQQALFGKNGKNCPDKFCLFKSETKNLLFNDNTECLAKLGGRPTYEEYLGTEYVTAIANLKKCSTSPLLEACAFLTR | only transiently fixed | 
Cell culture tube 2: Table III tube: Lf-^59Fe 0.1 mg/ml alone (protein, UniProt P24627 20-708, looked up, 59Fe iron-saturated) Lactotransferrin: APRKNVRWCTISQPEWFKCRRWQWRMKKLGAPSITCVRRAFALECIRAIAEKKADAVTLDGGMVFEAGRDPYKLRPVAAEIYGTKESPQTHYYAVAVVKKGSNFQLDQLQGRKSCHTGLGRSAGWIIPMGILRPYLSWTESLEPLQGAVAKFFSASCVPCIDRQAYPNLCQLCKGEGENQCACSSREPYFGYSGAFKCLQDGAGDVAFVKETTVFENLPEKADRDQYELLCLNNSRAPVDAFKECHLAQVPSHAVVARSVDGKEDLIWKLLSKAQEKFGKNKSRSFQLFGSPPGQRDLLFKDSALGFLRIPSKVDSALYLGSRYLTTLKNLRETAEEVKARYTRVVWCAVGPEEQKKCQQWSQQSGQNVTCATASTTDDCIVLVLKGEADALNLDGGYIYTAGKCGLVPVLAENRKSSKHSSLDCVLRPTEGYLAVAVVKKANEGLTWNSLKDKKSCHTAVDRTAGWNIPMGLIVNQTGSCAFDEFFSQSCAPGADPKSRLCALCAGDDQGLDKCVPNSKEKYYGYTGAFRCLAEDVGDVAFVKNDTVWENTNGESTADWAKNLNREDFRLLCLDGTRKPVTEAQSCHLAVAPNHAVVSRSDRAAHVKQVLLHQQALFGKNGKNCPDKFCLFKSETKNLLFNDNTECLAKLGGRPTYEEYLGTEYVTAIANLKKCSTSPLLEACAFLTR |  | 1.0 ± 0.2
Cell culture tube 3: Table III tube: Lf-^59Fe 0.01 mg/ml alone (protein, UniProt P24627 20-708, looked up, 59Fe iron-saturated) Lactotransferrin: APRKNVRWCTISQPEWFKCRRWQWRMKKLGAPSITCVRRAFALECIRAIAEKKADAVTLDGGMVFEAGRDPYKLRPVAAEIYGTKESPQTHYYAVAVVKKGSNFQLDQLQGRKSCHTGLGRSAGWIIPMGILRPYLSWTESLEPLQGAVAKFFSASCVPCIDRQAYPNLCQLCKGEGENQCACSSREPYFGYSGAFKCLQDGAGDVAFVKETTVFENLPEKADRDQYELLCLNNSRAPVDAFKECHLAQVPSHAVVARSVDGKEDLIWKLLSKAQEKFGKNKSRSFQLFGSPPGQRDLLFKDSALGFLRIPSKVDSALYLGSRYLTTLKNLRETAEEVKARYTRVVWCAVGPEEQKKCQQWSQQSGQNVTCATASTTDDCIVLVLKGEADALNLDGGYIYTAGKCGLVPVLAENRKSSKHSSLDCVLRPTEGYLAVAVVKKANEGLTWNSLKDKKSCHTAVDRTAGWNIPMGLIVNQTGSCAFDEFFSQSCAPGADPKSRLCALCAGDDQGLDKCVPNSKEKYYGYTGAFRCLAEDVGDVAFVKNDTVWENTNGESTADWAKNLNREDFRLLCLDGTRKPVTEAQSCHLAVAPNHAVVSRSDRAAHVKQVLLHQQALFGKNGKNCPDKFCLFKSETKNLLFNDNTECLAKLGGRPTYEEYLGTEYVTAIANLKKCSTSPLLEACAFLTR |  | 1.1 ± 0.1
Cell culture tube 1: Table III tube: Lf-^59Fe 1 mg/ml alone (protein, UniProt P24627 20-708, looked up, 59Fe iron-saturated) Lactotransferrin: APRKNVRWCTISQPEWFKCRRWQWRMKKLGAPSITCVRRAFALECIRAIAEKKADAVTLDGGMVFEAGRDPYKLRPVAAEIYGTKESPQTHYYAVAVVKKGSNFQLDQLQGRKSCHTGLGRSAGWIIPMGILRPYLSWTESLEPLQGAVAKFFSASCVPCIDRQAYPNLCQLCKGEGENQCACSSREPYFGYSGAFKCLQDGAGDVAFVKETTVFENLPEKADRDQYELLCLNNSRAPVDAFKECHLAQVPSHAVVARSVDGKEDLIWKLLSKAQEKFGKNKSRSFQLFGSPPGQRDLLFKDSALGFLRIPSKVDSALYLGSRYLTTLKNLRETAEEVKARYTRVVWCAVGPEEQKKCQQWSQQSGQNVTCATASTTDDCIVLVLKGEADALNLDGGYIYTAGKCGLVPVLAENRKSSKHSSLDCVLRPTEGYLAVAVVKKANEGLTWNSLKDKKSCHTAVDRTAGWNIPMGLIVNQTGSCAFDEFFSQSCAPGADPKSRLCALCAGDDQGLDKCVPNSKEKYYGYTGAFRCLAEDVGDVAFVKNDTVWENTNGESTADWAKNLNREDFRLLCLDGTRKPVTEAQSCHLAVAPNHAVVSRSDRAAHVKQVLLHQQALFGKNGKNCPDKFCLFKSETKNLLFNDNTECLAKLGGRPTYEEYLGTEYVTAIANLKKCSTSPLLEACAFLTR |  | 1.2 ± 0.1
